Reference: publication doi:10.1101/384248

Biological target: p53 (human (endogenous in HCT 116, MCF7, U2OS)), P04637
Experiment: co-IP
Conditions: remark: other sources report otherwise

Sequence of p53 (human (endogenous in HCT 116, MCF7, U2OS)), P04637 (P04637 whole entry): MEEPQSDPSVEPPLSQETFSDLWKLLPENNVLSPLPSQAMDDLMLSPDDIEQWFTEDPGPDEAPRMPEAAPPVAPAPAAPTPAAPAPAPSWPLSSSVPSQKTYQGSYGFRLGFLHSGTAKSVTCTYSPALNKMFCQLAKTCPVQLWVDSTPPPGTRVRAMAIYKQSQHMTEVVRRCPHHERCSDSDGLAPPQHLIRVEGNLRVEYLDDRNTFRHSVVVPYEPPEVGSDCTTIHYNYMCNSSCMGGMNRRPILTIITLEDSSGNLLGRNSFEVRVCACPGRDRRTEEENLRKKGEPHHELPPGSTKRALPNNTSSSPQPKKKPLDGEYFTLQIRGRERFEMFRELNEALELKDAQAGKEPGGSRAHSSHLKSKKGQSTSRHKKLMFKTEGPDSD

percent decrease of MDMX bound to p53 in cells treated with RITA: 43%
B1: MDMX, O15151 1-490 (natural protein)
chain: MTSFSTSAQCSTSDSACRISPGQINQVRPKLPLLKILHAAGAQGEMFTVKEVMHYLGQYIMVKQLYDQQEQHMVYCGGDLLGELLGRQSFSVKDPSPLYDMLRKNLVTLATATTDAAQTLALAQDHSMDIPSQDQLKQSAEESSTSRKRTTEDDIPTLPTSEHKCIHSREDEDLIENLAQDETSRLDLGFEEWDVAGLPWWFLGNLRSNYTPRSNGSTDLQTNQDVGTAIVSDTTDDLWFLNESVSEQLGVGIKVEAADTEQTSEEVGKVSDKKVIEVGKNDDLEDSKSLSDDTDVEVTSEDEWQCTECKKFNSPSKRYCFRCWALRKDWYSDCSKLTHSLSTSDITAIPEKENEGNDVPDCRRTISAPVVRPKDAYIKKENSKLFDPCNSVEFLDLAHSSESQETISSMGEQLDNLSEQRTDTENMEDCQNLLKPCSLCEKRPRDGNIIHGRTGHLVTCFHCARRLKKAGASCPICKKEIQLVIKVFIA
